Reference: paper PMC11903679

Legend:
HLA-B*08:01/hβ2m (human) [1] = molecular target: HLA-B*08:01/hβ2m (human)
HLA-A*02:01/hβ2m (human) [2] = molecular target: HLA-A*02:01/hβ2m (human)
HLA-B*08:01/hβ2m (human) [3] = assay: in vitro refolding + SEC
HLA-A*02:01/hβ2m (human) [4] = assay: in vitro refolding + SEC
HLA-E*01:03/hβ2m (human) [5] = molecular target: HLA-E*01:03/hβ2m (human)
HLA-E*01:03/hβ2m (human) [6] = assay: in vitro refolding + SEC
HLA-E*01:03/hβ2m (human) [7] = molecular target: HLA-E*01:03/hβ2m (human); remark: listed apart in the source

Substance | nanoDSF melting temperature (Tm) of the refolded peptide/HLA/hβ2m complex (HLA-B*08:01/hβ2m (human) [1]) | nanoDSF melting temperature (Tm) of the refolded peptide/HLA/hβ2m complex (HLA-A*02:01/hβ2m (human) [2]) | apparent refolding yield (%) (HLA-B*08:01/hβ2m (human) [3]) | apparent refolding yield (%) (HLA-A*02:01/hβ2m (human) [4]) | nanoDSF melting temperature (Tm) of the refolded peptide/HLA/hβ2m complex (HLA-E*01:03/hβ2m (human) [5]) | apparent refolding yield (%) (HLA-E*01:03/hβ2m (human) [6]) | nanoDSF melting temperature of a minor population of the refolded complex (HLA-E*01:03/hβ2m (human) [7])
LSA3 78–87 (…) (peptide) | 56.3 °C | 52.5 °C | 14.7% | 13.5% |  |  | 
LSA3 1229–1238 (…) (peptide) | 60.5 °C | 58.4 °C | 47.6% | 24.6% | 61 °C | 38.1% | 
MSP1 511–520 (…) (peptide) |  | 51.6 °C | 44.4% | 19% |  |  | 
MSP1 643–652 (…) (peptide) | 52.9 °C |  | 32.6% |  | 38.4 °C | 8% | 63 °C
MSP1 823–832 (…) (peptide) | 52.6 °C | 63.2 °C | 12.5% |  |  |  | 
MSP1 880–889 (…) (peptide) | 51.6 °C | 53.6 °C | 63.3% |  |  |  | 
SSFP 93–102 (…) (peptide) | 56.3 °C | 52.5 °C | 51.1% | 27.1% |  |  | 
